Assay results from patent US20220356228A1 (ICAHN SCHOOL OF MEDICINE AT MOUNT SINAI, published 2022).
Numbering of substitutions follows the chain as printed.

B1: 1A7 (antibody, V domains shown)
VH: QVQLVQSGAEVKKPGASVKVSCKASGYTFTFYDINWVRQATGQGLEWMGWMNPNSGNTGYAQNFQGRVTMTRNTSINTAYLELSSLRSEDTAVYYCARKIWVGHTTFDRWGQGTLVTVSS
VL: AIQMTQSPSSLSASVGDRVTITCRASQSISGYLNWYQQKPGKAPNLLIYAASNLQSGVPSRFSGSGSGTDFTLTISSLQREDFAPYYCQQTYNIPFTFGGGTKVEIK
B2: 4D11 (antibody, V domains shown)
VH: QVQLVESGGGLVKPGGSLRLSCAGSGFTFSDHYMSWIRQAPGKGLEWVSYISTSGRTIYYADSVKGRFTISRDNAKNSLYLQMNSLRAEDTAVYYCASDYYDNSGWYYWGQGTLVTVSS
VL: not shown
B3: 4E2 (antibody, V domains shown)
VH: B2 VH with G24A, H32F, K43M, T53F, T57A, K65R, R87S, S104V, Y107D, Q111P
VL: not shown
B4: 1H1 (antibody, V domains shown)
VH: B2 VH with G24A, H32F, K43M, T53F, T57A, K65R, R87S, S104V, Y107D, Q111P
VL: not shown
B5: 1G8 (antibody, V domains shown)
VH: B2 VH with G24A, H32F, K43M, T53F, T57A, K65R, R87S, S104V, Y107D, Q111P
VL: not shown
B6: 2A11 (antibody, V domains shown)
VH: B2 VH with G24A, A61V, T91M, S104V, Y107N, T113A
VL: DVVLTQSPLSLPVTLGQPASISCRSSQSLVYSDGNTYLNWFQQRPGQSPRRLIYKVSDRDFGVPDRFSGSGSGTDFTLKISRVEAEDVGIYYCMQGTHWPRTFGQGTKVEIK
B7: 1A3 (antibody, V domains shown)
VH: B2 VH with G24A, G26E, F27I, H32Y, V48I, Y60F, E89D, Y100F, Y107E
VL: B6 VL with L4M, P12S, F61S, V83A, I90V
B8: 1E8 (antibody, V domains shown)
VH: B2 VH with G24A, R56S, Y107N
VL: B6 VL with L4M, F61S, K79R, I90V, T97S
B9: 1F11 (antibody, V domains shown)
VH: B2 VH with G24A, H32L, S98G, Y107D, Q111R
VL: not shown
B10: 1E12 (antibody, V domains shown)
VH: B2 VH with A23T, G24A, S54G, S104V, Y107D
VL: B6 VL with V30I, F61S, I90V
B11: 1H10 (antibody, V domains shown)
VH: EVQLLESGGGLVQPGGSLRLSCAASGFTLSTYAMSWVRQAPGKGLEWVSAISGTGLSTYYADSLKGRFTISRDISKNTLYLQMSSLKAEDTAVYYCAKGLELFYFYYGMDVWGQGTTVTVSS
VL: EIVLTQSPGTLSLSPGERATLSCRASQSVSSTYLAWYQQKPGQAPRLLIYGTSSRATGIPDRFSGSGSGTDFTLTISRLEPEDLAVYYCQQYGRSLIFGQGTRLEIK
B12: 2A6 (antibody, V domains shown)
VH: QVQLQQWGAGLLKPSETLSLTCAVYGGSFSGYYWSWIRQPPGKGLEWIGDINHGGSTNYNPSLKSRVIISVDTSKNQFSLKLSSVTAADTALYYCARGWGGQVAHWFDPWGQGTLGTVSS
VL: DIVMTQSPDSLALSLGERATINCKSSQSVLFSSNNQNYLAWYQQKPGQPPKLLIYWASTRESGVPDRFSGSGSGTDFTLTVSSLQAEDVAVYFCQQYYSLPYTFGQGTKLEIK
B13: 8A7 (antibody, V domains shown)
VH: QVQLQESGPGLVKPSETLSLTCTVSGGSISSNYWNWIRQPPGKGLEWIGYIYYSGSTNYNPSLKSRVTISVDTSKNQFSLKLSSVTAADTAVYYCARRGFEQQLSYYYYYGLDVWGQGTTVTVSS
VL: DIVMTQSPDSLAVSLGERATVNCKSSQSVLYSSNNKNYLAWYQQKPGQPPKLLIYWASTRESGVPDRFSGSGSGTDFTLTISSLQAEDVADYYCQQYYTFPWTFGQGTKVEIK
B14: 3D2 (antibody, V domains shown)
VH: QVQLQQWGAGLLKPSETLSLTCAVFGGSFSSYYWSWIRHPPGKGLEWIGDINHSGSTNYNPSLKSRVTLSVDTSKNQFSLKVTSVTAADTAVYYCARWGIAADYGMDVWGQGTTVTVSS
VL: EIVLTQSPGTLSLSPGERATLSCRASQSVSSSYLAWYQQKPGQAPRLLIYGASSRATGIPDRFSDSGSGTDFTLTISRLEPEDFALYYCQQYGTSPWTFGQGTKVEIK

Experiments:
[1] = target: T1, JCV major capsid protein VP1, wild type (John Cunningham virus (JCV), UniProt P03089 1-354); assay: cell-based or functional assay
JCV VP1 mutant S269F [2] = target: T2, JCV VP1 mutant S269F (John Cunningham virus (JCV), UniProt P03089 1-354); assay: cell-based or functional assay
[3] = target: T1, JCV major capsid protein VP1, wild type; assay: ELISA, plates coated with pseudovirus, purified antibody
JCV VP1 mutant L55F [4] = target: T3, JCV VP1 mutant L55F (John Cunningham virus (JCV), UniProt P03089 1-354); assay: as above
T3 construct: also called VP1 L55F; 55m VP1

JCV VP1 mutant S269F [5] = target: T2, JCV VP1 mutant S269F; assay: as above
JCV VP1 mutant L55F [6] = target: T3, JCV VP1 mutant L55F; assay: cell-based or functional assay

| Binder | Neutralization of wild type JCV, EC50 [pM] [1] [pM] | Neutralization of JCV S269F: EC50 [pM] (JCV VP1 mutant S269F [2]) | AB conc. (lowest concentration of antibody that gave a clear signal above background) [3] [ng/mL] | EC50 [3] [ng/mL] | binding result (JCV VP1 mutant L55F [4]) | AB conc. (lowest concentration of antibody that gave a clear signal above background) (JCV VP1 mutant S269F [5]) [ng/mL] | EC50 (JCV VP1 mutant S269F [5]) [ng/mL] | Neutralization of JCV L55F: EC50 [pM] (JCV VP1 mutant L55F [6]) | AB conc. (lowest concentration of antibody that gave a clear signal above background) (JCV VP1 mutant L55F [4]) [ng/mL] | EC50 (JCV VP1 mutant L55F [4]) [ng/mL] |
| --- | --- | --- | --- | --- | --- | --- | --- | --- | --- | --- |
| B1 | 180 | 7 | < 22 | 24.7 | no binding (tested: 2.5 ng/ml to 200 ng/ml) | < 2.5 | 7.4 | – | – | – |
| B2 | 124 | 12.7 | < 2.5 | 1.9 | – | < 2.5 | 6.9 | 245 | < 2.5 | 7.7 |
| B3 | 160 | 30 | < 7.4 | 11.7 | – | < 2.5 | 7.1 | – | < 2.5 | 13.2 |
| B4 | 182 | 55.3 | < 2.5 | 6.5 | – | < 2.5 | 7.5 | – | < 2.5 | 14.7 |
| B5 | 144 | 22.7 | < 2.5 | 7 | – | < 2.5 | 7.7 | 511 | < 2.5 | 16.7 |
| B6 | 146 | 250 | < 7.4 | 7.4 | – | < 2.5 | 6.8 | 45.5 | < 7.4 | 13.6 |
| B7 | 301 | 37.3 | < 2.5 | 7.1 | – | < 2.5 | 8 | 6600 | < 2.5 | 14.3 |
| B8 | 127 | 55.3 | < 2.5 | 8 | – | < 2.5 | 22 | 3380 | < 22 | 46.5 |
| B9 | 111 | 53 | < 7.4 | 9.4 | – | < 2.5 | 7.6 | 76 | < 7.4 | 14.3 |
| B10 | 16 | 105 | < 7.4 | 8.4 | – | < 7.4 | 8.5 | 56.7 | < 2.5 | 7.7 |
| B11 | 155 | 20.9 | < 22 | 19.3 | – | < 7.4 | 18.5 | – | – | – |
| B12 | 2710 | – | < 200 | 1300 | no binding (tested: 2.5 ng/ml to 200 ng/ml) | < 22 | 147 | – | – | – |
| B13 | – | – | – | 8.5 | – | – | – | – | – | – |
| B14 | 2250 | 733 | < 67 | 393 | no binding (tested: 2.5 ng/ml to 200 ng/ml) | < 22 | 121 | – | – | – |
